Laboratory results reported in patent publication US20220033501A1 (SHANGHAI PHARMAEXPLORER, published 2022).

T1: monkey TIM-3 extracellular domain protein with hFc tag (cTIM-3-hFc) (monkey)
T1 construct: not shown: human IgG Fc fragment (hFc) of the pCpC vector
T1 chain: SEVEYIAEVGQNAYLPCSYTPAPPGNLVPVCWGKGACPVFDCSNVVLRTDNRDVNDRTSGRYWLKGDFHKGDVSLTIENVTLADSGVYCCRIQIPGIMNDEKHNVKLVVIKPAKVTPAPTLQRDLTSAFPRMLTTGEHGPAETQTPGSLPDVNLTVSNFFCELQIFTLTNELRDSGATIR

T2: human TIM-3 on CHOK1 stable cell line (CHOK1-hTIM-3) (human, UniProt Q8TDQ0 22-301)
T2 sequence: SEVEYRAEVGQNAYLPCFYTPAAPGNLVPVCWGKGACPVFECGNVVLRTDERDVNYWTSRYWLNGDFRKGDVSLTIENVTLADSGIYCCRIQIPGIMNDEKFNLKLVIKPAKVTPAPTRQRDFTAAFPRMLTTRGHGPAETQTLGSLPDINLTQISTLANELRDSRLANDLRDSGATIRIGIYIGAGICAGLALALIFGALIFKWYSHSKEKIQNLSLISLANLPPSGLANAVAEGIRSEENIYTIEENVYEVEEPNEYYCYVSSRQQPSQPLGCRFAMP

T3: monkey TIM-3 on CHOK1 stable cell line (CHOK1-cTIM-3) (monkey)
T3 chain: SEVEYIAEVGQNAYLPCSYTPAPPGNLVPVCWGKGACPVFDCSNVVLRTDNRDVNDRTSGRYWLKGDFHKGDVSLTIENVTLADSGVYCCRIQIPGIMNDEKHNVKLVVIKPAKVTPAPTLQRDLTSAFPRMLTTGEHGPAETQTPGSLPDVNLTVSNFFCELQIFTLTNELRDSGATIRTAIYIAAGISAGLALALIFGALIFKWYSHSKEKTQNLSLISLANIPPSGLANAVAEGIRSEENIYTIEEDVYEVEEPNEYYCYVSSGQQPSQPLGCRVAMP

T4: human TIM-3 extracellular domain protein with hFc tag (hTIM-3-hFc) (human, UniProt Q8TDQ0 22-200)
T4 construct: not shown: human IgG Fc fragment (hFc) of the pCpC vector
T4 sequence: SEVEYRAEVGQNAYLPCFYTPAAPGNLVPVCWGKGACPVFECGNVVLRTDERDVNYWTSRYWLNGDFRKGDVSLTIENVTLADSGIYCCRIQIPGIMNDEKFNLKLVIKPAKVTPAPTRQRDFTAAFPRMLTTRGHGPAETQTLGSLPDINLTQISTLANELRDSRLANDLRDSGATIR

T5: murine TIM-3 extracellular domain protein with hFc tag (mTIM-3-hFc) (mouse, UniProt Q8VIM0 29-191)
T5 construct: also called mouse TIM-3 extracellular domain protein; not shown: human IgG Fc fragment (hFc) of the pCpC vector
T5 chain: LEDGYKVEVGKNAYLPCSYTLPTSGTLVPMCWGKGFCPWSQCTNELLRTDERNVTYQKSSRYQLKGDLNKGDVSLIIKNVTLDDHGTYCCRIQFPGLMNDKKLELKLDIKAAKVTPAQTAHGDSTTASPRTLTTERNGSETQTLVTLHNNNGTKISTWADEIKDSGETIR

T6: TIM-3 protein on human peripheral blood mononuclear lymphocytes (PBMC) (human, UniProt Q8TDQ0 22-301)
T6 sequence: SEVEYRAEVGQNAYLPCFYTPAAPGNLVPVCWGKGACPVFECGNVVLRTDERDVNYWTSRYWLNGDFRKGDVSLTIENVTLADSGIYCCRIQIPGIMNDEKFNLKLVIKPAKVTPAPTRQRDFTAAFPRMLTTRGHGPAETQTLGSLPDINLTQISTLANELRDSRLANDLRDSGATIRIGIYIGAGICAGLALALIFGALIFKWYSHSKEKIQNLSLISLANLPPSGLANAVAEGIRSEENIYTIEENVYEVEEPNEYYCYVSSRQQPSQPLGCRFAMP

T7: monkey TIM-3 protein with hFc tag (cTIM-3-hFc protein) (monkey; human)
T7 construct: Made in HEK293 cells; also called monkey TIM-3 extracellular domain protein; not shown: human IgG Fc fragment (hFc) of the pCpC vector
T7 chain: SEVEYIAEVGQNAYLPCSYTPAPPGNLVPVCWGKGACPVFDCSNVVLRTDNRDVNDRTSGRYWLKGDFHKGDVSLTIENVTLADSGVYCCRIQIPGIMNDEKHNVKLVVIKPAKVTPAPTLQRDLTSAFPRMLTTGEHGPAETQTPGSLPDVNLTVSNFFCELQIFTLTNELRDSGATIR


What was measured:
[1] = target: T1, monkey TIM-3 extracellular domain …; assay: ELISA, coated monkey TIM-3 ECD protein, 0.6667 nM antibody
[2] = target: T2, human TIM-3 on CHOK1 stable cell line …; assay: FACS, CHOK1-hTIM-3 cells, 0.32 nM antibody
[3] = target: T3, monkey TIM-3 on CHOK1 stable cell line …; assay: FACS, CHOK1-cTIM-3 cells, 0 nM antibody
[4] = target: T4, human TIM-3 extracellular domain …; assay: ELISA, coated human TIM-3 ECD protein, 0.0001 nM antibody
[5] = target: T5, murine TIM-3 extracellular domain …; assay: ELISA, coated mouse TIM-3 ECD protein, 0.6667 nM antibody
[6] = target: T6, TIM-3 protein on human peripheral blood …; assay: cell-based or functional assay
[7] = target: T7, monkey TIM-3 protein with hFc tag …; assay: ELISA, coated cTIM-3-hFc; antibody 0.0001 nM
Excerpt: The amino acid sequence 22-200 of the extracellular domain of the human TIM-3 protein described in the step of Example 1 (as shown in SEQ ID NO. 71 in the sequence listing) was cloned into a pCpC vector having a human IgG Fc fragment (hFc), and transfected into HEK293 cells. The cell culture medium was collected, and purified to obtain the human TIM-3 protein with hFc tag (herein referred to as hTIM-3-hFc protein). The amino acid sequence 22-201 of the extracellular domain of the monkey TIM-3 protein (as shown in SEQ ID NO. 72 in the sequence listing) was cloned into a pCpC vector having a human IgG Fc fragment (hFc), and transfected into HEK293 cells. The cell culture medium was collected, and purified to obtain the monkey TIM-3 protein with hFc tag (herein referred to as cTIM-3-hFc protein). […] The cell culture medium was collected, and purified to obtain the murine TIM-3 protein with hFc tag (herein referred to as mTIM-3-hFc protein). Purified human, monkey, and mouse TIM-3 extracellular domain proteins (hTIM-3-hFc, cTIM-3-hFc, and mTIM-3-hFc) were diluted with PBS to a final concentration of 1.0 μg/ml and then added to a 96-well ELISA plate with 100 μl per well. The plate was sealed with plastic film and incubated overnight at 4° C. The plate was washed 4 times with the plate washing solution (PBS+0.01% Tween20) on the next day, and added with the blocking solution (PBS+0.01% Tween20+1% BSA) and sealed at room temperature for 1-2 hours. The blocking solution was poured out. 50-100 μl of the antibody sample to be tested was added to each well. The plate was incubated at 37° C. for 1-2 hours, and washed 2-3 times with plate washing solution (PBS+0. 01% Tween20). HRP (horseradish peroxidase) labeled secondary antibody was added. The plate was incubated at 37° C. for 1-2 hours, and washed 2-3 times with plate washing solution (PBS+0. 01% Tween20). […] of TMB substrate was added to each well. After incubated at room temperature for 15-30 minutes, the plate was added with […] stop solution (1.0N HCl) to each well. An ELISA plate reader (TiterMax 384plus, Molecular Device) was used to read the A450 nm value.

Row | OD450 [1] | Mean fluorescence intensity [2] | Mean fluorescence intensity [3] | OD450 [4] | OD450 [5] | IFN-γ production (donor X); antibody 0.1 µg/ml, N = 1 [6] [pg/mL] | IFN-γ production (donor X); antibody 0.1 µg/ml, N = 2 [6] [pg/mL] | IFN-γ production (donor X); antibody 1 µg/ml, N = 1 [6] [pg/mL] | IFN-γ production (donor X); antibody 1 µg/ml, N = 2 [6] [pg/mL] | IFN-γ production (donor X); antibody 10 µg/ml, N = 1 [6] [pg/mL] | IFN-γ production (donor X); antibody 10 µg/ml, N = 2 [6] [pg/mL] | IFN-γ production (donor X); antibody '0' (4th head as printed), N = 1 [6] [pg/mL] | IFN-γ production (donor X); antibody '0' (4th head as printed), N = 2 [6] [pg/mL] | IFN-γ production (donor X); antibody '0' (5th head as printed), N = 1 [6] [pg/mL] | IFN-γ production (donor X); antibody '0' (5th head as printed), N = 2 [6] [pg/mL] | OD450 [7] | Binder
1 | 3.1 | 96.6 | 2.9 | 0.1 | 0.23 | 2610 | 2720 | 3250 | 2890 | 3460 | 3480 | 2390 | 2430 | 2510 | 2370 |  | 134H3G6 fully human TIM-3 antibody (human IgG4, kappa) (antibody, V domains shown) VH: EVQLVESGGGLVQPGGSLRLSCAASGFTFSNSWMTWVRQAPGKGLEWVANIKQAGTEKYYVDSVKGRFTISRDNAKNSLYLQMNSLRAEDTAVYYCNSGSNYFDYWGQGTLVTVSS VL: EIVMTQSPATLSVSPGERATLSCRARQNFYSNLAWYQQKPGQAPRLLIYGASTRATGIPARFSGSGSGTEFTLTISSLQSEDFAVYYCQQYNNWPLTFGGGTKVEIK
2 | 3.05 | 73.6 | 2.8 | 0.08 | 0.24 | 2410 | 3170 | 2780 | 2030 | 3000 | 2470 | 2100 | 2300 | 1970 | 2400 |  | 215A8F2 fully human TIM-3 antibody (human IgG4, kappa) (antibody, V domains shown) VH: QVQLQQWGAGLLKPSETLSLTCTVYGGSFSGYYWNWIRQPPGKGLEWLGEINHSGSTNYNPSLKRRVTISVDTSKNQFSLKLSSVTAADTAVYYCARVYYYGPFDFWGQGTLVTVSS VL: not shown
3 |  |  |  |  |  |  |  |  |  |  |  |  |  |  |  | 0.52 | 215A8F2 (TIM-3 antibody purified from hybridoma, chimeric antibody of Example 2) (antibody, V domains shown, From hybridoma of Harbour H2L2 transgenic mice: human variable regions, rat constant regions) VH: QVQLQQWGAGLLKPSETLSLTCTVYGGSFSGYYWNWIRQPPGKGLEWLGEINHSGSTNYNPSLKRRVTISVDTSKNQFSLKLSSVTAADTAVYYCARVYYYGPFDFWGQGTLVTVSS VL: not shown

The next lines start with the binder.

Row | Binder | OD450 [1] | Mean fluorescence intensity [2] | Mean fluorescence intensity [3] | OD450 [4] | OD450 [5] | IFN-γ production (donor X); antibody 0.1 µg/ml, N = 1 [6] [pg/mL] | IFN-γ production (donor X); antibody 0.1 µg/ml, N = 2 [6] [pg/mL] | IFN-γ production (donor X); antibody 1 µg/ml, N = 1 [6] [pg/mL] | IFN-γ production (donor X); antibody 1 µg/ml, N = 2 [6] [pg/mL] | IFN-γ production (donor X); antibody 10 µg/ml, N = 1 [6] [pg/mL] | IFN-γ production (donor X); antibody 10 µg/ml, N = 2 [6] [pg/mL] | IFN-γ production (donor X); antibody '0' (4th head as printed), N = 1 [6] [pg/mL] | IFN-γ production (donor X); antibody '0' (4th head as printed), N = 2 [6] [pg/mL] | IFN-γ production (donor X); antibody '0' (5th head as printed), N = 1 [6] [pg/mL] | IFN-γ production (donor X); antibody '0' (5th head as printed), N = 2 [6] [pg/mL] | OD450 [7]
4 | 7A4F10 (TIM-3 antibody purified from hybridoma, chimeric antibody of Example 2) (antibody, V domains shown, From hybridoma of Harbour H2L2 transgenic mice: human variable regions, rat constant regions) VH: EVQLLESGGGLVQPGGSLRLSCAASGFTFRTHLISWVRQAPGKGLEWVAAITGSGGSTYYADSVKGRFIISRDNSKNTLFLQMNSLRAEDTAVYYCAKDGGSGSYDDFWGQGTLVTVSS VL: ETVLTQSPVTLSLSPGERATLSCRASQSVGSYLAWYQQKPGQAPRLLIYDASNRATGIPARFSGSGSGTDFTLTISSLEPEDFAVYYCQQRSNWPPTFGQGTKVEIK |  |  |  |  |  |  |  |  |  |  |  |  |  |  |  | 0.54
5 | 34B6D8 (TIM-3 antibody purified from hybridoma, chimeric antibody of Example 2) (antibody, V domains shown, From hybridoma of Harbour H2L2 transgenic mice: human variable regions, rat constant regions) VH: EVQLVESGGGLVQPGGSLRLSCAASGFTFSTYWMTWVRQAPGKRLEWVANIKQGGGDKYYVDSVKGRFTISTDNAKNSLYLQMNSLRAEDTAVYYCARGSNWFDPWGQGTLVTVSS VL: EIVMTQSPATLSMSPGERATLSCRASQSVYDNLAWYQQKPGQAPRLLIYGASTRATGIPARFSGSGSGTEFTLTISSLQSEDFALYYCQQYTHWPITFGQGTRLEIK |  |  |  |  |  |  |  |  |  |  |  |  |  |  |  | 0.57
